Measurements reported in publication doi:10.1101/2024.03.22.586355, “Dynamic fibrillar assembly of αB-crystallin induced by perturbation of the conserved NT-IXI motif resolved by cryo-EM” (bioRxiv, 2024).

Tests used:
[1] = target: the molecule itself; experiment: cryo-EM structure; αB-AXA fibrils elongated at room temperature for about four weeks, dialysed (1 MDa m.w.c.o.), 0.5 mg/mL; helical and local refinement with D2 symmetry, 3.4 Å
[2] = target: the molecule itself; experiment: SEC + other: negative-stain electron microscopy; Superose-6 24 mL column; peak fractions examined by negative-stain EM with 2D class averaging; 20 mM HEPES pH 7.4, 150 mM NaCl, 1 mM EDTA

Protein | binding result [1] | binding result [2]
human αB-crystallin NT-AXA variant (natural protein, UniProt P02511 1-175, looked up, human αB-crystallin (HSPB5, CRYAB), 20.2 kDa subunit; The cryo-EM model covers residues 75-161; the last 14 residues are not modelled; also called αB-AXA; source: E. coli BL21, purified (Sephacryl 300 SEC, MonoQ ion exchange), no purification tags) MDAAAHHPWIRRPFFPFHSPSRLFDQFFGEHLLESDLFPTSTSLSPFYLRPPSFLRAPSWFDTGLSEMRLEKDRFSVNLDVKHFSPEELKVKVLGDVIEVHGKHEERQDEHGFISREFHRKYRIPADVDPLTITSSLSSDGVLTVNGPRKQVSGPERTIPITREEKPAVTAAPKK | binds | –
human wildtype αB-crystallin (natural protein, UniProt P02511 1-175, looked up, human αB-crystallin (HSPB5, CRYAB), 20.2 kDa subunit; pET plasmid containing the human αB-crystallin gene; Polydisperse cage-like oligomers; also called αB-wt; αB-WT; source: E. coli BL21, purified (Sephacryl 300 SEC, MonoQ ion exchange), no purification tags) MDIAIHHPWIRRPFFPFHSPSRLFDQFFGEHLLESDLFPTSTSLSPFYLRPPSFLRAPSWFDTGLSEMRLEKDRFSVNLDVKHFSPEELKVKVLGDVIEVHGKHEERQDEHGFISREFHRKYRIPADVDPLTITSSLSSDGVLTVNGPRKQVSGPERTIPITREEKPAVTAAPKK | – | binds
